The values that follow come from patent US20200165313A1, “EGF(A) ANALOGUES, PREPARATION, FORMULATIONS AND USES THEREOF” (Novo Nordisk A/S, priority 2017, published 2020).

In the experiment the target is T1, hPCSK9 (Homo sapiens, UniProt Q8NBP7).
T1 construct: purchased Sino Biologicals, China
The experiment is described as follows: hPCSK9 challenge model (hepatic LDL-R expression in mice, Western Blot). Type of experiment: in vivo, mouse. To be noted: healthy control 100%, hPCSK9 alone 0%, dose of inhibitor 22 nmol/kg. In general terms: A western blot detects proteins with antibodies after separation by electrophoresis.

T1 sequence (Q8NBP7 153-692): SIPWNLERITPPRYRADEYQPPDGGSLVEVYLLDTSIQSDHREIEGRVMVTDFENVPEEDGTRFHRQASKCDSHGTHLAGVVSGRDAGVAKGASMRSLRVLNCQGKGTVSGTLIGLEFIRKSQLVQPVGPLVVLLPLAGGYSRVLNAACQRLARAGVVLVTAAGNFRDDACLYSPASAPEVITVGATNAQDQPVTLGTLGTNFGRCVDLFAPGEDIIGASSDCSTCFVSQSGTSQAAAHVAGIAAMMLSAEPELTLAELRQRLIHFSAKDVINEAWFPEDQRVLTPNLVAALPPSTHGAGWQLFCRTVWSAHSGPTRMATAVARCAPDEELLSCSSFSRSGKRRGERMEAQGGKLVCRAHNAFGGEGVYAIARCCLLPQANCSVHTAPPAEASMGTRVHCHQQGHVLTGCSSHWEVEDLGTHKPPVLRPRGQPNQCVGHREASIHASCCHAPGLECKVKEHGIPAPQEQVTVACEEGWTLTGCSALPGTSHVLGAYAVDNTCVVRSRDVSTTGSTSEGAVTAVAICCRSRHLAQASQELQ
Procedure: The aim of this study was to show the change in the LDL receptor expression level in mouse liver in response to inhibiting the action of intravenously injected hPCSK9 with an anti-PCSK9 peptide.
Healthy male BalBC or NMRI mice (Charles River, Germany) are injected with an anti-PCSK9 peptide, either s.c. or i.v. 15-120 minutes before injecting hPCSK9 (Sino Biologicals, China) intravenously in the tail vein at a dose of 0.4 mg/kg. Sixty minutes after the injection of hPCSK9, the animals are anaesthetised in isoflurane and euthanised by cervical dislocation. The liver is then quickly excised and snapfrozen in liquid nitrogen. The livers are kept at −80 degrees celsius until analysis.
The proteins were transferred to nitrocellulose membranes (iBlot 2 NC Regular stacks, novex # IB23001) according to manufacturer's instructions (Life Technology). Equal protein transfer was confirmed by Ponceau S (Sigma, P7170) staining of the membranes and the membranes were further blocked in blocking buffer (TBS-T, 2% Tween). […] Quantitative analysis of chemiluminescent signals from Western blots was done with MultiGauge software (Fujifilm).
“Vehicle-vehicle” is the group of healthy controls (baseline level), “vehicle-hPCSK9” is the group injected with hPCSK9 alone.

Regarding “Alirocumab: anti-PCSK9 antibody, control molecule in the hPCSK9 challenge model”, the Percentage of baseline is on record as 157%.
